From patent US20140248254

Biological target: G-Actin protein

B1: Mus AChE protein (AChE 1-548AA, mouse) (protein)
chain: EGREDPQLLVRVRGGQLRGIRLKAPGGPVSAFLGIPFAEPPVGSRRFMPPEPKRPWSGVLDATTFQNVCYQYVDTLYPGFEGTEMWNPNRELSEDCLYLNVWTPYPRPASPTPVLIWIYGGGFYSGAASLDVYDGRFLAQVEGAVLVSMNYRVGTFGFLALPGSREAPGNVGLLDQRLALQWVQENIAAFGGDPMSVTLFGESAGAASVGMHILSLPSRSLFHRAVLQSGTPNGPWATVSAGEARRRATLLARLVGCPPGGAGGNDTELIACLRTRPAQDLVDHEWHVLPQESIFRFSFVPVVDGDFLSDTPEALINTGDFQDLQVLVGVVKDEGSYFLVYGVPGFSKDNESLISRAQFLAGVRIGVPQASDLAAEAVVLHYTDWLHPEDPTHLRDAMSAVVGDHNVVCPVAQLAGRLAAQGARVYAYIFEHRASTLTWPLWMGVPHGYEIEFIFGLPLDPSLNYTTEERIFAQRLMKYWTNFARTGDPNDPRDSKSPQWPPYTTAAQQYVSLNLKP
  cleaving of plasmid DNA by AChE (agarose gel) after pre-incubation with G-Actin: it almost had no effect on cleaving ability of AChE on DNA
